For test [1], the target named is T1, TREM2 (Homo sapiens, UniProt Q9NZC2).
T1 sequence (Q9NZC2 19-230): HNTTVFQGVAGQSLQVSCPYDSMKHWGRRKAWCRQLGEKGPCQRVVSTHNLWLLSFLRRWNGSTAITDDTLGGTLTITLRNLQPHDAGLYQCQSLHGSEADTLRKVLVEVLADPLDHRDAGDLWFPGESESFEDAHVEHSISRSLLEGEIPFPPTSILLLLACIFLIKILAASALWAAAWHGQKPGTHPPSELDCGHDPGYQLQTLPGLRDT
As to conditions: cited from earlier work.

Test [2] has as its system human monocyte-derived macrophages (hMDMs). Kind of test: Example 1E: CSF1 withdrawal, confluence and Caspase 3/7 apoptosis (Incucyte). It counts as cell-based. The following applies: CSF1 withdrawal (0 ng/mL), plates coated with 0.4, 2.0 or 10 μg/mL, 72 hours. Here is the method:
PBMCs were isolated from fresh, whole blood from human donors. CD14+ monocytes were isolated using positive magnetic selection (Miltenyi). Cells were plated in UpCell® low-adhesion plates and incubated in culture media with 50 ng/mL CSF1 for 48 hours. After 48 hours, cells were non-enzymatically harvested and plated at 25,000 cells per well in cell culture plates coated with 0.4, 2.0, or 10 μg/mL of either Ab-3 or a matching isotype control, and incubated in a humidified incubator at 37C, 5% CO2 for 72 hours. Caspase-3/7 Green reporter dye was included in the some wells to determine the number of apoptotic events over time. During incubation, cells were monitored every two hours using an Incucyte S3® analyzer (2 fields of view per well, imaged at 10×). Confluence levels were determined using the Incucyte® software, and normalized to CSF1 at 50 ng/mL, which was considered as normal culture conditions. Caspase 3/7 positive counts per field of view were calculated using Incucyte® software. Significance was determined by Ordinary One-Way ANOVA, using multiple comparisons in Graphpad Prism.

The test system is the same in test [3]. Kind of test: Example 2E: CSF1R inhibition by PLX5622, confluence and morphology (Incucyte). Format: cell-based. The following applies: plates coated with 10 μg/mL, plus PLX5622 1 μM, 96 hours. How it is done: PBMCs were isolated from fresh, whole blood from human donors. CD14+ monocytes were isolated using positive magnetic selection (Miltenyi). Cells were plated in UpCell® low-adhesion plates and incubated in culture media with 50 ng/mL CSF1 for 48 hours. After 48 hours, cells were non-enzymatically harvested and plated at 25,000 cells per well in cell culture plates coated with 10 μg/mL of either Ab-3 or a matching isotype control. PLX5622 was immediately added to the cultures to 1 μM, and plates were incubated in a humidified incubator at 37 C, 5% CO2 for an additional 96 hours. During incubation, cells were monitored every two hours using an Incucyte S3® analyzer (2 fields of view per well, imaged at 10×). Confluence was measured using built in S3 software, while area and eccentricity (cell shape) were measured using the built in “Cell By Cell” analysis software. Significance was determined by Student's T-test, two-tailed in Graphpad Prism.

B1: V86: 6E7 variant: VH T30G, I34L, Q65E, Q99S; VL L54R (antibody, V domains shown)
VH: EVQLVQSGAEVKKPGESLKISCKGSGYSFGSYWLAWVRQMPGKGLEWMGIIYPGDSDTRYSPSFEGQVTISADKSISTAYLQWSSLKASDTAMYFCARSRTFYYDSSDYFDYWGQGTLVTVSS
VL: DIQMTQSPSSVSASVGDRVTITCRASQGISSWLAWYQQKPGKAPKLLIYAASSRQNGVPSRFSGSGSGTDFTLTISSLQPEDFATYFCQQADSFPRTFGQGTKLEIK
Regarding B1, the “Binding Signal (fold over 6E7 parental antibody) 1st screen 110 nM or 10 nM” value in test [1] (1st screen, 10 nM Ab concentration (values not marked *)) is given as 4.80 fold over 6E7 parental antibod. The “Binding Signal (fold over 6E7 parental antibody) 2nd screen 2 nM” value in test [1] (2nd screen, 2 nM) is 5.17 fold over 6E7 parental antibod. The “Binding Signal (fold over 6E7 parental antibody) 2nd screen 10 nM” value in test [1] (2nd screen, 10 nM) is listed as 5.02 fold over 6E7 parental antibod.

B2: Ab-3: murinized version of a human TREM2 agonist antibody, engineered variant of 13E7; HC SEQ ID NO:2779, LC SEQ ID NO:2780 (antibody)
heavy: EVQLVQSGAEVKKPGESLKISCKGSGYSFTSYWIGWVRQMPGKGLEWMGIIYPGDADARYSPSFQGQVTISADKSISTAYLQWSSLKASDTAMYFCARRRQGIFGDALDFWGQGTLVTVSSAKTTPPSVYPLAPGSAAQTNSMVTLGCLVKGYFPEPVTVTWNSGSLSSGVHTFPAVLQSDLYTLSSSVTVPSSTWPSETVTCNVAHPASSTKVDKKIVPRDCGCKPCICTVPEVSSVFIFPPKPKDVLTITLTPKVTCVVVDISKDDPEVQFSWFVDDVEVHTAQTQPREEQFGSTFRSVSELPIMHQDWLNGKEFKCRVNSAAFPAPIEKTISKTKGRPKAPQVYTIPPPKEQMAKDKVSLTCMITDFFPEDITVEWQWNGQPAENYKNTQPIMDTDGSYFVYSKLNVQKSNWEAGNTFTCSVLHEGLHNHHTEKSLSHSPGK
light: EIVMTQSPATLSVSPGERATLSCRASQSVSSNLAWFQQKPGQAPRLLIYGASTRATGIPARFSGSGSGTEFTLTISSLQPEDFAVYYCLQDNNFPPTFGQGTKVDIKRADAAPTVSIFPPSSEQLTSGGASVVCFLNNFYPKDINVKWKIDGSERQNGVLNSWTDQDSKDSTYSMSSTLTLTKDEYERHNSYTCEATHKTSTSPIVKSFNRNEC
modifications: REGION 1..445: note = Murinized Ab-3 HC; REGION 1..214: note = Murinized Ab-3 LC
On to B2, for which the confluence result in test [2] (donors 16 and 26, FIGS. 1 and 2) is “increased confluence levels to that of high CSF1 treated cells”; in test [3] (FIG. 5), “restoration of confluence to levels similar to that of vehicle alone”. For the same molecule, the “Caspase 3/7 levels (apoptosis)” value in test [2] (donors 16 and 26, FIGS. 3 and 4) is reported as “reduced Caspase 3/7 levels to that of high CSF1 treated cells”. Moreover, the “cells with “high area, high eccentricity” (ramified)” value in test [3] (FIG. 6) is listed as “restoration of “high area, high eccentricity” to levels higher than that of vehicle alone”.

(Values after patent publication US20250326839A1, “TREATMENT OF DISEASES RELATED TO COLONY-STIMULATING FACTOR 1 RECEPTOR DYSFUNCTION USING TREM2 AGONISTS” (Vigil Neuroscience, Inc., priority 2020, published 2025).)
